Laboratory results from patent publication US11267868 (dated 2022).

T1: FcgRIIb (human, UniProt P31994)
T1 chain: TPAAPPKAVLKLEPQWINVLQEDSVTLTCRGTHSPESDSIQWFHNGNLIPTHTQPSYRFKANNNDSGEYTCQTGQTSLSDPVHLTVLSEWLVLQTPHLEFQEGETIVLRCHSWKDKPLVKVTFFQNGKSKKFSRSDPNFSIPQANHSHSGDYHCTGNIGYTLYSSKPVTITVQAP

T2: FcgRIIaR (human, UniProt P12318)
T2 chain: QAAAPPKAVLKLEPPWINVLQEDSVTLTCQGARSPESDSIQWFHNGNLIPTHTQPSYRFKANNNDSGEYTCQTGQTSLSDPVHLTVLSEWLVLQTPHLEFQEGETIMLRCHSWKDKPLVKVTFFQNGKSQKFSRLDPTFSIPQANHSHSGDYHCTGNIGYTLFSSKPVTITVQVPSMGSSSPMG

T3: FcgRIIaH (human, UniProt P12318)
T3 chain: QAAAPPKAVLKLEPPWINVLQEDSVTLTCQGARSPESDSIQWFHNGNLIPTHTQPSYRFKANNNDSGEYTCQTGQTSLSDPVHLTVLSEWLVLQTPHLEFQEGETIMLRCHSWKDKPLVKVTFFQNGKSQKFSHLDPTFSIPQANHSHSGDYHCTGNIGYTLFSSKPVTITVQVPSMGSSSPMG

T4: FcgRIa (human, UniProt P12314)
T4 chain: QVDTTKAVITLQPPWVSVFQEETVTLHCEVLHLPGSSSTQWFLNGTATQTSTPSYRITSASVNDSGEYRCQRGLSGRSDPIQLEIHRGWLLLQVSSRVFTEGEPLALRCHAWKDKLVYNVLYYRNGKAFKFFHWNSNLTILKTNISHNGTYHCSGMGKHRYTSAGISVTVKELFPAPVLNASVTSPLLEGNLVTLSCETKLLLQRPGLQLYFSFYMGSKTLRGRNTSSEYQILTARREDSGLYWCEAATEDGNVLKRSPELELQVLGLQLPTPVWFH


Columns and labels:
Assay in all cases: SPR
FcgRIIIaV = FcgRIIIaV (human, UniProt P08637)
FcgRIIb = biological target: T1, FcgRIIb
FcgRIIaR = biological target: T2, FcgRIIaR
FcgRIIaH = biological target: T3, FcgRIIaH
FcgRIa = biological target: T4, FcgRIa

FcgRIIIaV, sequence (P08637 17-208 F176V): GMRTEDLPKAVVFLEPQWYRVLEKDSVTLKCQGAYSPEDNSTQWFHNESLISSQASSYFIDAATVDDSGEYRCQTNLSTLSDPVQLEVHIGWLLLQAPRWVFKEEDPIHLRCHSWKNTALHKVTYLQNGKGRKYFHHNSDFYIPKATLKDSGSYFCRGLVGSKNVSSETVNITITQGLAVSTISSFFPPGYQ

| Kd (FcgRIIIaV) | Kd (FcgRIIb) | Kd (FcgRIIaR) | Kd (FcgRIIaH) | Kd (FcgRIa) | Binder |
| --- | --- | --- | --- | --- | --- |
| 56 µM | 4.4 µM | 83 µM | 180 µM | 0.66 µM | IL6R-P729/IL6R-L (antibody) chain 1: QVQLQESGPGLVKPSETLSLTCAVSGHSISHDHAWSWVRQPPGEGLEWIGFISYSGITNYNPSLQGRVTISRDNSKNTLYLQMNSLRAEDTAVYYCARSLARTTAMDYWGEGTLVTVSSASTKGPSVFPLAPSSKSTSGGTAALGCLVKDYFPEPVTVSWNSGALTSGVHTFPAVLQSSGLYSLSSVVTVPSSSLGTQTYICNVNHKPSNTKVDKKVEPKSCDKTHTCPPCPAPELFGQDSVMLFPPKPKDTLMISRTPEVTCVVVDVSPEDPEVKFNWYVDGVEVHNAKTKPREEQENSTYRVVSVLTVLHQDWLNGKEYKCKVSNKALPAPIEKTISKAKGQPREPQVYTLPPSRDELTKNQVSLTCLVKGFYPSDIAVEWESNGQPENNYKTTPPVLDSDGSFFLYSKLTVDKSRWQQGNVFSCSVMHEALHNHYTQKSLSLSP chain 2: not shown |
| 52 µM | 4.7 µM | 78 µM | 120 µM | 0.028 µM | IL6R-P689/IL6R-L (antibody) chain 1: QVQLQESGPGLVKPSETLSLTCAVSGHSISHDHAWSWVRQPPGEGLEWIGFISYSGITNYNPSLQGRVTISRDNSKNTLYLQMNSLRAEDTAVYYCARSLARTTAMDYWGEGTLVTVSSASTKGPSVFPLAPSSKSTSGGTAALGCLVKDYFPEPVTVSWNSGALTSGVHTFPAVLQSSGLYSLSSVVTVPSSSLGTQTYICNVNHKPSNTKVDKKVEPKSCDKTHTCPPCPAPELLGGDSVMLFPPKPKDTLMISRTPEVTCVVVDVSPEDPEVKFNWYVDGVEVHNAKTKPREEQENSTYRVVSVLTVLHQDWLNGKEYKCKVHNKALPAPIEKTISKAKGQPREPQVYTLPPSRDELTKNQVSLTCLVKGFYPSDIAVEWESNGQPENNYKTTPPVLDSDGSFFLYSKLTVDKSRWQQGNVFSCSVMHEALHNHYTQKSLSLSP chain 2: not shown |
| 48 µM | 2.6 µM | 39 µM | 68 µM | 0.016 µM | IL6R-P654/IL6R-L (antibody) chain 1: QVQLQESGPGLVKPSETLSLTCAVSGHSISHDHAWSWVRQPPGEGLEWIGFISYSGITNYNPSLQGRVTISRDNSKNTLYLQMNSLRAEDTAVYYCARSLARTTAMDYWGEGTLVTVSSASTKGPSVFPLAPSSKSTSGGTAALGCLVKDYFPEPVTVSWNSGALTSGVHTFPAVLQSSGLYSLSSVVTVPSSSLGTQTYICNVNHKPSNTKVDKKVEPKSCDKTHTCPPCPAPELLGGDSVMLFPPKPKDTLMISRTPEVTCVVVDVSHEDPEVKFNWYVDGVEVHNAKTKPREEQENSTYRVVSVLTVLHQDWLNGKEYKCKVNNKALPAPIEKTISKAKGQPREPQVYTLPPSRDELTKNQVSLTCLVKGFYPSDIAVEWESNGQPENNYKTTPPVLDSDGSFFLYSKLTVDKSRWQQGNVFSCSVMHEALHNHYTQKSLSLSP chain 2: not shown |
| 61 µM | 2.4 µM | 44 µM | 100 µM | 0.019 µM | IL6R-P602/IL6R-L (antibody) chain 1: QVQLQESGPGLVKPSETLSLTCAVSGHSISHDHAWSWVRQPPGEGLEWIGFISYSGITNYNPSLQGRVTISRDNSKNTLYLQMNSLRAEDTAVYYCARSLARTTAMDYWGEGTLVTVSSASTKGPSVFPLAPSSKSTSGGTAALGCLVKDYFPEPVTVSWNSGALTSGVHTFPAVLQSSGLYSLSSVVTVPSSSLGTQTYICNVNHKPSNTKVDKKVEPKSCDKTHTCPPCPAPELLGGDSVMLFPPKPKDTLMISRTPEVTCVVVDVSHEDPEVKFNWYVDGVEVHNAKTKPREEVENSTYRVVSVLTVLHQDWLNGKEYKCKVSNKALPAPIEKTISKAKGQPREPQVYTLPPSRDELTKNQVSLTCLVKGFYPSDIAVEWESNGQPENNYKTTPPVLDSDGSFFLYSKLTVDKSRWQQGNVFSCSVMHEALHNHYTQKSLSLSP chain 2: not shown |
| 50 µM | 1.9 µM | 39 µM | 84 µM | 0.028 µM | IL6R-P656/IL6R-L (antibody) chain 1: QVQLQESGPGLVKPSETLSLTCAVSGHSISHDHAWSWVRQPPGEGLEWIGFISYSGITNYNPSLQGRVTISRDNSKNTLYLQMNSLRAEDTAVYYCARSLARTTAMDYWGEGTLVTVSSASTKGPSVFPLAPSSKSTSGGTAALGCLVKDYFPEPVTVSWNSGALTSGVHTFPAVLQSSGLYSLSSVVTVPSSSLGTQTYICNVNHKPSNTKVDKKVEPKSCDKTHTCPPCPAPELLGGDSVMLFPPKPKDTLMISRTPEVTCVVVDVSHEDPEVKFNWYVDGVEVHNAKTKPREEQENSTYRVVSVLTVLHQDWLNGKEYKCKVSNKALPHPIEKTISKAKGQPREPQVYTLPPSRDELTKNQVSLTCLVKGFYPSDIAVEWESNGQPENNYKTTPPVLDSDGSFFLYSKLTVDKSRWQQGNVFSCSVMHEALHNHYTQKSLSLSP chain 2: not shown |
| 40 µM | 5.5 µM | 64 µM | 120 µM |  | IL6R-P604/IL6R-L (antibody) chain 1: QVQLQESGPGLVKPSETLSLTCAVSGHSISHDHAWSWVRQPPGEGLEWIGFISYSGITNYNPSLQGRVTISRDNSKNTLYLQMNSLRAEDTAVYYCARSLARTTAMDYWGEGTLVTVSSASTKGPSVFPLAPSSKSTSGGTAALGCLVKDYFPEPVTVSWNSGALTSGVHTFPAVLQSSGLYSLSSVVTVPSSSLGTQTYICNVNHKPSNTKVDKKVEPKSCDKTHTCPPCPAPELLGGDSVMLFPPKPKDTLMISRTPEVTCVVVDVSHEDPEVKFNWYVDGVEVHNAKTKPREEQENATYRVVSVLTVLHQDWLNGKEYKCKVSNKALPAPIEKTISKAKGQPREPQVYTLPPSRDELTKNQVSLTCLVKGFYPSDIAVEWESNGQPENNYKTTPPVLDSDGSFFLYSKLTVDKSRWQQGNVFSCSVMHEALHNHYTQKSLSLSP chain 2: not shown |
| 44 µM | 4.1 µM | 58 µM | 110 µM |  | IL6R-P688/IL6R-L (antibody) chain 1: QVQLQESGPGLVKPSETLSLTCAVSGHSISHDHAWSWVRQPPGEGLEWIGFISYSGITNYNPSLQGRVTISRDNSKNTLYLQMNSLRAEDTAVYYCARSLARTTAMDYWGEGTLVTVSSASTKGPSVFPLAPSSKSTSGGTAALGCLVKDYFPEPVTVSWNSGALTSGVHTFPAVLQSSGLYSLSSVVTVPSSSLGTQTYICNVNHKPSNTKVDKKVEPKSCDKTHTCPPCPAPELLGGDSVMLFPPKPKDTLMISRTPEVTCVVVDVSPEDPEVKFNWYVDGVEVHNAKTKPREEQENSTYRVVSVLTVLHQDWLNGKEYKCKVNNKALPAPIEKTISKAKGQPREPQVYTLPPSRDELTKNQVSLTCLVKGFYPSDIAVEWESNGQPENNYKTTPPVLDSDGSFFLYSKLTVDKSRWQQGNVFSCSVMHEALHNHYTQKSLSLSP chain 2: not shown |
| 57 µM | 2.7 µM | 56 µM | 120 µM | 0.53 µM | IL6R-P692/IL6R-L (antibody) chain 1: QVQLQESGPGLVKPSETLSLTCAVSGHSISHDHAWSWVRQPPGEGLEWIGFISYSGITNYNPSLQGRVTISRDNSKNTLYLQMNSLRAEDTAVYYCARSLARTTAMDYWGEGTLVTVSSASTKGPSVFPLAPSSKSTSGGTAALGCLVKDYFPEPVTVSWNSGALTSGVHTFPAVLQSSGLYSLSSVVTVPSSSLGTQTYICNVNHKPSNTKVDKKVEPKSCDKTHTCPPCPAPELFGQDSVMLFPPKPKDTLMISRTPEVTCVVVDVSHEDPEVKFNWYVDGVEVHNAKTKPREEQENSTYRVVSVLTVLHQDWLNGKEYKCKVSNKALPHPIEKTISKAKGQPREPQVYTLPPSRDELTKNQVSLTCLVKGFYPSDIAVEWESNGQPENNYKTTPPVLDSDGSFFLYSKLTVDKSRWQQGNVFSCSVMHEALHNHYTQKSLSLSP chain 2: not shown |
